We go through one protein from publication doi:10.1101/2021.03.01.433427 (bioRxiv, 2021).

This series deals with the molecule itself. The experiment in a line: solid state NMR.

B1: His-tagged TDP-43-LC (low complexity domain of the TAR DNA-binding protein 43, residues 262-414) (domain or fragment)
chain: PKHNSNRQLERSGRFGGNPGGFGNQGGFGNSRGGGAGLGNNQGSNMGGGMNFGAFSINPAMMAAAQAALQSSWGMMGMLASQQNQSGPSGNNQNQGNMQREPNQAFGSGNNSYSGSNSGAAIGWGSASNAGSGSGFNGGFGSSMDSKSSGWGM
B1: the binding result was “binds”.
